Data from publication PMC7246762, “Peptide Interference with APP and Tau Association: Relevance to Alzheimer’s Disease Amelioration” (International Journal of Molecular Sciences, 2020).
No end group written: not given here.

Molecular target: T1, Tau1 (19-34) peptide labelled with rhodamine (human, also: labelled with rhodamine isothiocyanate, site not given here)
T1 construct: microtubule-associated protein Tau, human, residues 19-34; also called Tau1R; source: synthetic peptide (GL Biochem Ltd.), labelled with rhodamine isothiocyanate
T1 peptide: GLGDRKDQGGYTMHQD
Experiment: far-Western, overlay or dot blot; mixtures of a fluorescein-labelled (green) and a rhodamine-labelled (red) peptide spotted on a nitrocellulose membrane; yellow colour read as binding
Settings: both partners purified

B1: APP1 (390-412) peptide labelled with fluorescein (peptide)
peptide: HFQKAKERLEAKHRERMSQVMRE
modifications: also: labelled with fluorescein isothiocyanate, site not given here
notes: amyloid precursor protein, human, residues 390-412; The discussion names the region as 389-411; also called APP1F; App1F; source: synthetic peptide (GL Biochem Ltd.), labelled with fluorescein isothiocyanate
- binding result: binds
